These are literature values, as cited in paper PMC6222470.

For data set [1], the target named is histone H3K14ac peptide H3 tail peptide (Homo sapiens) (UniProt P68431).
For data set [2], the target named is histone H3.3K36me3 H3.3 peptide (Homo sapiens) (UniProt P84243).
For data set [3], the target named is histone H3 H3K14ac peptide (Homo sapiens) (UniProt P68431).
Data set [4] has as its target histone H3 H3K36me3 peptide (Homo sapiens) (UniProt P68431).
Data set [5] deals with histone H4 H4K20me2 peptide (Homo sapiens) (UniProt P62805).

Sequence of ZMYND11 PHD-BD-ZnF-PWWP (Q15326 100-371): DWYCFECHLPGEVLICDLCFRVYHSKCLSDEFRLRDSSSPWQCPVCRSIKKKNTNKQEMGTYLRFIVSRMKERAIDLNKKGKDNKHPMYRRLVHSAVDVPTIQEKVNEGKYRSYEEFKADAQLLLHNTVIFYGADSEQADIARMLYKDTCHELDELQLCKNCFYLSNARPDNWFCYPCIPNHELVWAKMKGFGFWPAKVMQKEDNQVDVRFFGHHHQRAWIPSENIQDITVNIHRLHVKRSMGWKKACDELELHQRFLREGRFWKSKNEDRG
Sequence of histone H3.3K36me3 H3.3 peptide (Homo sapiens) (P84243 20-43): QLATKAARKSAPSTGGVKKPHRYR
Sequence of 53BP1 TTD (Q12888 1484-1603): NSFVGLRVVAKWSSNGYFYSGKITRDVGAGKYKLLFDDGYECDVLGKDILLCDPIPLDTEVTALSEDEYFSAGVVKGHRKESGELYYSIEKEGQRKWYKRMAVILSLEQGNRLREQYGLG
Sequence of BRM BD BD (P51531 1378-1506): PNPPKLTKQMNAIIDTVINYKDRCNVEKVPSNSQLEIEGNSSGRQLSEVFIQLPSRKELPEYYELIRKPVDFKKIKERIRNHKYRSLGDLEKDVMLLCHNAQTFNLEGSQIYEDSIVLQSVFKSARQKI
Sequence of BRM BD (P51531 1378-1506): as above
Sequence of PHF1 Tudor (O43189 26-89): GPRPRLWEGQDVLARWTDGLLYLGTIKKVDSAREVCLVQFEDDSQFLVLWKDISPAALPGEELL

Turning to BRM BD BD (from UniProt P51531), the dissociation constant (Kd) in data set [1] is 900 µM.

For “ZMYND11 PHD-BD-ZnF-PWWP (from UniProt Q15326)”, in data set [2], the dissociation constant (Kd) is 56 µM.

Consider BRM BD (from UniProt P51531), for which the equilibrium dissociation constant (Kd) in data set [3] was 900 µM.

Turning to PHF1 Tudor (from UniProt O43189), the Kd in data set [4] is 36 µM.

Consider 53BP1 TTD (from UniProt Q12888), for which the dissociation constant (Kd) in data set [5] is 19.7 µM.

As a reminder, the Kd is the equilibrium constant for the complex coming apart.
